This data set deals with the molecule itself. The experiment in a line: crystal structure; SeMet-DnaJ_(Δ108–114/4M), SeMet-SAD phasing, 2.9 Å; two dimers in the asymmetric unit; crystals from 14–16% PEG 6000, 0.1 M succinate/BTP pH 7.0 with adenine nucleotides.

B1: SeMet-DnaJ_(Δ108–114/4M), Thermus thermophilus DnaJ lacking residues 108–114 with four residues substituted by methionine (natural protein, UniProt Q56237 1-280, looked up)
chain: MAAKKDYYAILGVPRNATQEEIKRAYKRLARQYHPDVNKSPEAEEKFKEINEAYAVMSDPEKRRIYDTYGTTEAPPPPPPGGYDFSGFDVEDFSEFFQELFGPGLFGKGRDLRAELPLTLEEAFHGGERVVEVAGRRVSVRMPPGVREGSVIRVPGMGGQGNPPGDLLLVVRMLPHPVFRLEGQDLYATLDVPAPIAVVGGKVRAMTLEGPVEVAVPPRTQAGRKMRLKGKGFPGPAGRGDLYLEVRITIPERLTPEEEALWKKLAEAYYARA
modifications: selenomethionine in place of methionine
notes: DnaJ (type II DnaJ, Hsp40 homologue) of Thermus thermophilus with J, GF and C-terminal domains; chains A-D of the model hold residues 2-272; Cloned NcoI/NotI into pET24d; also called DnaJ_(108114/4M); source: E. coli BL21(DE3) in minimal medium with L-selenomethionine, purified (heat denaturation, Ni-NTA, Superdex 200)
Regarding B1, the binding result was “binds”.
